molecular target: T1, His-ClpX (M. tuberculosis ClpX, pRD21) (M. tuberculosis, UniProt P9WPB9 1-426); assay: pull-down; conditions: both partners purified
T1 construct: also called his-clpXTB; recombinant His-ClpX fusion protein
T1 sequence (P9WPB9 whole entry, the tested form may be a part): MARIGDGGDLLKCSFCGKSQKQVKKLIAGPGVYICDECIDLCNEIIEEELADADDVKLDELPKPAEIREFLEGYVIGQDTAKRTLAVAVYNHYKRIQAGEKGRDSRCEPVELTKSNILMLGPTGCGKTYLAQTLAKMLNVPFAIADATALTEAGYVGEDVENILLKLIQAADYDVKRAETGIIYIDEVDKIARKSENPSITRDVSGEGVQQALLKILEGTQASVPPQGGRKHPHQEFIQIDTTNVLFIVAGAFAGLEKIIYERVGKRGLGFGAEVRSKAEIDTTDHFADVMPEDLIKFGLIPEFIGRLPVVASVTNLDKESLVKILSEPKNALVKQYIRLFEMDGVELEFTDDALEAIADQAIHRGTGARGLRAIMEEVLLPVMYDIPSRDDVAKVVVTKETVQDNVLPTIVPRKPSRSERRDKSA

Row | Binder | binding result
1 | tag-free FtsZ (M. tuberculosis FtsZ, polyhistidine tag cleaved with thrombin) (natural protein, also called FtsZTB) MTPPHNYLAVIKVVGIGGGGVNAVNRMIEQGLKGVEFIAINTDAQALLMSDADVKLDVGRDSTRGLGAGADPEVGRKAAEDAKDEIEELLRGADMVFVTAGEGGGTGTGGAPVVASIARKLGALTVGVVTRPFSFEGKRRSNQAENGIAALRESCDTLIVIPNDRLLQMGDAAVSLMDAFRSADEVLLNGVQGITDLITTPGLINVDFADVKGIMSGAGTALMGIGSARGEGRSLKAAEIAINSPLLEASMEGAQGVLMSIAGGSDLGLFEINEAASLVQDAAHPDANIIFGTVIDDSLGDEVRVTVIAAGFDVSGPGRKPVMGETGGAHRIESAKAGKLTSTLFEPVDAVSVPLHTNGATLSIGGDDDDVDVPPFMRR | binds
2 | FtsZ G103S, tag-free (pRR3) (natural protein) MTPPHNYLAVIKVVGIGGGGVNAVNRMIEQGLKGVEFIAINTDAQALLMSDADVKLDVGRDSTRGLGAGADPEVGRKAAEDAKDEIEELLRGADMVFVTAGESGGTGTGGAPVVASIARKLGALTVGVVTRPFSFEGKRRSNQAENGIAALRESCDTLIVIPNDRLLQMGDAAVSLMDAFRSADEVLLNGVQGITDLITTPGLINVDFADVKGIMSGAGTALMGIGSARGEGRSLKAAEIAINSPLLEASMEGAQGVLMSIAGGSDLGLFEINEAASLVQDAAHPDANIIFGTVIDDSLGDEVRVTVIAAGFDVSGPGRKPVMGETGGAHRIESAKAGKLTSTLFEPVDAVSVPLHTNGATLSIGGDDDDVDVPPFMRR | binds
3 | FtsZ D210G, tag-free (pRR7) (natural protein) MTPPHNYLAVIKVVGIGGGGVNAVNRMIEQGLKGVEFIAINTDAQALLMSDADVKLDVGRDSTRGLGAGADPEVGRKAAEDAKDEIEELLRGADMVFVTAGEGGGTGTGGAPVVASIARKLGALTVGVVTRPFSFEGKRRSNQAENGIAALRESCDTLIVIPNDRLLQMGDAAVSLMDAFRSADEVLLNGVQGITDLITTPGLINVDFAGVKGIMSGAGTALMGIGSARGEGRSLKAAEIAINSPLLEASMEGAQGVLMSIAGGSDLGLFEINEAASLVQDAAHPDANIIFGTVIDDSLGDEVRVTVIAAGFDVSGPGRKPVMGETGGAHRIESAKAGKLTSTLFEPVDAVSVPLHTNGATLSIGGDDDDVDVPPFMRR | binds
